PMC12207370, “Macrocyclic Peptide Probes for Immunomodulatory Protein CD59: Potent Modulators of Bacterial Toxin Activity and Antibody‐Dependent Cytotoxicity” (Angewandte Chemie (International Ed. in English), 2025)

Target: T1, biotinylated CD59 (Homo sapiens, UniProt P13987)
T1 construct: Recombinant soluble human CD59 with an additional C-terminal cysteine residue
T1 sequence (P13987 26-102 limits assumed): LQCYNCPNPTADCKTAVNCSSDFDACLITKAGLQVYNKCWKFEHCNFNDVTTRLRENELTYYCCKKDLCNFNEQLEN
Test: mRNA-display cyclic peptide screen against CD59-biotin, NGS abundance after 6th selection round
Settings: for Percentage Seq I: counts normalised by total counts of sample Seq I; for Percentage Seq I / Percentage Seq II: percentage of the pool; for Percentage Seq I / Percentage Seq II / Percentage Average / Percentage of the pool, averaged across the two sequencing samples / Percentage of the pool, Seq I / Percentage of the pool, Seq II: sheet R6; for Percentage Seq II: counts normalised by total counts of sample Seq II; for Percentage Average: percentage of the pool averaged across the two sequencing samples; for Counts Seq I / Counts Seq II: raw NGS counts of peptide sequence; for Counts Seq I: sequencing sample Seq I; for Counts Seq I / Counts Seq II / Counts (raw counts for peptide sequence), Seq I / Counts (raw counts for peptide sequence), Seq II: sheet R6 (6th selection round); for Counts Seq II: sequencing sample Seq II; for Counts (raw counts for peptide sequence), Seq I: NGS sample Seq I; for Counts (raw counts for peptide sequence), Seq II: NGS sample Seq II; for Percentage of the pool, averaged across the two sequencing samples: average of Seq I and Seq II; for Percentage of the pool, Seq I: counts normalised by total counts of NGS sample Seq I; for Percentage of the pool, Seq II: counts normalised by total counts of NGS sample Seq II
Text: To discover novel non‐protein CD59 ligands, we screened a library of 10^12 cyclic peptides against CD59 using mRNA‐display (Figure 2a).^[ [23], [24], [25], [26], [27], [28], [29] ^] Briefly, an mRNA library was designed in which the start codon was reprogrammed from Met to N‐chloroacetyl‐D‐Tyr (ClAc‐D‐Tyr), followed by 10–12 randomly encoded natural amino acids, a Cys residue, a (GlySer)3 linker, and a stop codon. […] The total library diversity was 1.51 × 10^13 molecules, comprising 5.02 × 10^12 molecules of each macrocycle size, covering a subset of the maximum theoretical diversity of this library design. Following in vitro translation, ClAc‐D‐Tyr spontaneously reacts with either the C‐terminal Cys or a Cys in the random region, yielding macrocyclic thioether peptides. Hits from the library were identified through iterative enrichment and amplification against biotinylated CD59, then immobilized on streptavidin beads. Fifteen hit sequences (CP‐01 to CP‐15), enriched with abundance >1% relative to the total pool of recovered binders after the 6th round of selection, were synthesized by solid phase peptide synthesis (SPPS), without the (Gly‐Ser)3 linker.
Figure 2 Discovery of macrocyclic peptide ligands with nanomolar CD59 affinity using mRNA display. a) The selection process. PCR = polymerase chain reaction, SPPS = solid phase peptide synthesis. b) Table showing details of the peptides with nanomolar affinity for CD59 as well as the binding affinity of the lead inhibitor of CD59, rILYd4. K D values are presented as the average of three technical replicates ± SEM. Structures of all peptides and SPR sensograms are presented in Figures S1 and S2. *indicates the presented sequences are the variable regions of these cyclic peptides; each is flanked by an N‐terminal Ac‐D‐Tyr cyclized to a C‐terminal Cys. R6 abundance (%) is defined as (the given number of NGS reads for a given sequence/the total number of reads of unique sequences observed in NGS)*100 following the 6th selection round. c) Representative sensogram of the interaction between CP‐06 with immobilized CD59 by SPR analysis. Inset showing the equilibrium binding curve of CP‐06 to CD‐59. Below in the box are the association and dissociation rate constants of CP‐06. Concentrations are plotted in descending order from 800‐3.1 nM in line with their position on the legend. […] (nM)'; the box with Kon/Koff has no label of its own / ILYd4: the label may be cut off at the left edge (possibly 'rILYd4') / CP-02, KD: 15.3 ± 0.2, small print, 3 or 8 uncertain / CP-03, KD: 23.4 ± 0.7, small print / CP-06, KD: 11.3 ± 0.0, small print, 3 or 8 uncertain / CP-13, KD: 10.8 ± 0.7, small print, 8 or 6 uncertain / ILYd4, KD: 48.3 ± 1.1, small print, 8 and 3 uncertain
The mRNA-display cyclic peptide screen was performed against CD59-biotin by T.E.M: DNA templates for transcription were generated by PCR in a similar manner to that previously described.^2 RNA oligonucleotides were transcribed from the DNA templates using T7 RNA polymerase and purified by phenol/chloroform extraction followed by ethanol precipitation. Oligonucleotide concentrations were determined spectroscopically by absorbance at 260 nm. In the first selection round a 1:1:1 molar ratio of NNK10/NNK11/NNK12 was used. The procedure for selection rounds 2-6 is described below; round 1 was conducted at twice the scale.
RNA encoding for the peptide library ligated to a puromycin-modified oligonucleotide was […] (final [RNA] = 2.5 µM) using a customised PURE express kit (lacking release factor 1 and methionine, supplemented with […] initiator tRNA acylated with N-chloroacetyl-d-tyrosine prepared as previously described)^3 in a final volume of 5.6 µL for 1 hour at 37 °C.
This mixture was incubated at 42 °C for 1 hour before being diluted to 500 µL with PBS (10 mM Na-PO4 pH 7.4, 2.7 mM KCl, 137 mM NaCl) and 0.5 µL taken for subsequent use in qPCR. […]

Sequence | Percentage Seq I [%] | Percentage Seq II [%] | Percentage Average [%] | Counts Seq I | Counts Seq II | Counts (raw counts for peptide sequence), Seq I | Counts (raw counts for peptide sequence), Seq II | Percentage of the pool, averaged across the two sequencing samples [%] | Percentage of the pool, Seq I [%] | Percentage of the pool, Seq II [%]
EIRGALNWVRG | 0.125 | 0.146 | 0.136 | 549 | 63 | – | – | – | – | –
GRLNECHVTWP | – | – | – | – | – | 43 | 9 | 0.015 | 0.010 | 0.021
CFSRRLAAGAI | – | – | – | – | – | 35 | 5 | 0.010 | 0.008 | 0.012
CFSTRLSRSYGT | 0.016 | 0.026 | 0.021 | 68 | 11 | – | – | – | – | –
WILGSRWWTRS | 0.097 | 0.111 | 0.104 | 424 | 48 | – | – | – | – | –
RCWVRGSRNYT | – | – | – | – | – | 45 | 4 | 0.010 | 0.010 | 0.009
FVRGDMYSVLG | – | – | – | – | – | 39 | 6 | 0.011 | 0.009 | 0.014
CFSRRTSVPNTT | 0.209 | 0.190 | 0.200 | 914 | 82 | – | – | – | – | –
VVHGGKDYQWS | – | – | – | – | – | 64 | 5 | 0.013 | 0.015 | 0.012
CFTHRLTDFGT | 0.053 | 0.070 | 0.061 | 230 | 30 | – | – | – | – | –
QPFWGCRTVAYS | 0.033 | 0.049 | 0.041 | 144 | 21 | – | – | – | – | –
SWTWGNRSSVLG | – | – | – | – | – | 35 | 7 | 0.012 | 0.008 | 0.016
CFSARAILDGGW | 0.249 | 0.248 | 0.249 | 1089 | 107 | – | – | – | – | –
YVFGNRSFTRG | 0.504 | 0.524 | 0.514 | 2205 | 226 | – | – | – | – | –
IARGDRTFSFG | 0.013 | 0.035 | 0.024 | 57 | 15 | – | – | – | – | –
HAFGNRSFTRG | – | – | – | – | – | 82 | 5 | 0.015 | 0.019 | 0.012
FVRGDLYSILG | – | – | – | – | – | 50 | 6 | 0.013 | 0.011 | 0.014
CFARRLSSSHSL | 0.161 | 0.155 | 0.158 | 705 | 67 | – | – | – | – | –
LRGSYDYQLYFG | 0.013 | 0.023 | 0.018 | 57 | 10 | – | – | – | – | –
CFYQRTLGTTAS | 0.018 | 0.021 | 0.019 | 79 | 9 | – | – | – | – | –
